The values that follow come from patent US20210363194A1.

Assay [1] addresses eOD-60mer (eOD-GT8 60mer; eOD-GT8 fused to lumazine synthase, self-assembled 60-mer nanoparticle). Put plainly: biolayer interferometry, eOD-60mer in solution on immobilized biotinylated mouse MBL; apparent affinity (avidity). A general note: Biolayer interferometry detects binding as a change in optical thickness at a sensor tip.
In assay [2] the target is recombinant mouse mannose-binding lectin (MBL) (mouse). In words: biolayer interferometry; eOD-60mer dilutions on biosensors loaded with biotinylated recombinant mouse MBL; apparent affinity [eOD-60mer].

Consider “recombinant mouse mannose-binding lectin (MBL)”, for which the Kd in assay [1] amounted to 4 pM.
Turning to “eOD-60mer (eOD-GT8 60mer; eOD-GT8 fused to lumazine synthase, self-assembled 60-mer nanoparticle)”, in assay [2], the Kd is 3.78 pM.
